According to the nanobody polyreactivity screen of Harvey et al. (2022):

Assay: yeast display, Sf9 membrane polyspecificity reagent, FACS + sequencing; frameworks hold sequencing errors
Method in brief: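 Nanobodies came from a synthetic yeast display library in Saccharomyces cerevisiae BJ5465, induced with galactose for 36–48 hours and stained for 1 hour at 4 °C with 10% biotinylated, detergent-solubilized Sf9 membrane reagent. Cells were enriched on streptavidin microbeads and then FACS-sorted, with low and high (top ~1%) gates set on anti-HA fluorescence for expression and streptavidin fluorescence for reagent binding. Each polyreactivity label reflects the gate a clone came from. Genes were amplified by colony PCR, sequenced by MiSeq 2 × 250 and filtered by CDR length.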

QVQLVESGGGLVQAGGSLRLSCAPSGITFFYNTMGWYRQAPGKERELVAAISVSGGGTYYADSVKARFTISRDNAKNTVYLQMNSLKPEDTAVYYCNKVQVRQRRYDYWGQGTQVTVSS
polyreactivity (PSR sort gate): low polyreactivity

QVQLVESGGGLVQAGGSLRLSCAASGRSIKYYAMGWYRQAPGKERELVAAIRSTGGSTYYADSVKGRFTISRDNAKNTVYLQMNSLKPEDTAVYYCNARRYPRYVFSRYVYWGQGTQVNVSS
polyreactivity (PSR sort gate): high polyreactivity

QVQLVDSGGGLVQAGGSLRLSCAASGSIFGLYAMGWYRQAPGKERELVAAISASGGSTYYADSVKGRFTISRDNAKNTVYLQMNSLKPEDTAVYYCAADLGYPTYDYWGQDTQVTVSS
polyreactivity (PSR sort gate): low polyreactivity

QVQLVESGGGLVQAGGSLRLSCAASGSIFARNAMGWYRQAPGKERELVAAISWSGGRTYYADSVKGRFTISRDNAKNTVYLQMNSLKPEDTAVYYCATDTWWGQGTQVTVSS
polyreactivity (PSR sort gate): high polyreactivity

QVQIEESGGGLVQAGGSIRLSCAASGRIFFLNAMGWYRQAPGKERELVAAISKSGGSTYYADSEKGRFTISRDNAKNTGFLQMNSLKPEDTAVYYCAARLHRFIRVDFGYDYWGQGTQVTVSS
polyreactivity (PSR sort gate): high polyreactivity

QVQLVESGGGLVQAGGSLRLSCAASGRTFTIYAMGWYRQAPGKEREFVASITGSDGSTYYADSVKGRFTISRDNAKNTVYLQMNSLKPEDTAVYYCAAATSSAYDYWGQGTQVTVSS
polyreactivity (PSR sort gate): low polyreactivity

QVQLVESGGGLVQAGGSLRLSCAASGSTFPVYAMGWYRQEPGKERELVAAITSGVSTNYADSVKGRFTISRDNAKNTVYLQMNSLKPEDTAVYYCAKDFGLLPIRDDYWGQGTQVTVSS
polyreactivity (PSR sort gate): low polyreactivity

QVQLVESGGGLVQAGGSLRLSCAASGGIFDFYAMGWYRQAPGKERELVAAIRYGGSSTYYADSVKGRFTISRDNAKNTVYLLLNSLKPEDTAVYYCAAEPFSWDTWVDYDYWGQGTQVTVSS
polyreactivity (PSR sort gate): low polyreactivity

QVQLVESGGGLVQAGGSLRVSCAASGRIFTQYATGWYRQAPAKEREMVAAINASDGSTYADSVKGRFTISRDNAKNSVYVQMNSLNPEDSAVYYCNVTGGPYDFTRWSDFDHWGQGTQVTVSS
polyreactivity (PSR sort gate): low polyreactivity

QVQLVESGGGLVQAGGSLSLSCAASGSIIPDYAMGWYRQAPGKERELVAAITWRDDSTYYADSVKGRFTISRDNAKNTVYLQMNSLKPEDTAVYYCNASALDPLYAKDDYWGQGTQVTVSS
polyreactivity (PSR sort gate): low polyreactivity

QVQLVESGGGLVQAGGSLRLSCAASGSTSSSKAMGWYREAPGKERELVATITNGSGTSYADSVKGRFTISRDNAKNTVYLQMNSLKPEDTAVYYCYVSSLNSYTSGTTYWGLDYWGQGTQVTVSS
polyreactivity (PSR sort gate): low polyreactivity

QVQLVESGGGLVQAGGSLRLSCASSGRTFAWYAMGWYRQAPGKERELVAAISNVGSTYYADSVKGRFTISRDNAKNTVYLQMNSLKPEDTAVYYCNADAVSTDGREYWGQGTQVTVSS
polyreactivity (PSR sort gate): low polyreactivity

QVQLVESGGGLVQAGGSLRLSCAATGITFYINAMGSYRQAPGKERELVAVIDSRGSSTFYADSVKGRFTISLDYAKNTVYLQMNSLKPEDTAVYYCAVEGYPGRYRDPGDLYYYWGQGTQVTVSS
polyreactivity (PSR sort gate): low polyreactivity

QVQLVESGGGLVQAGGSLRLSCAASGSIFTGYAMGWYRQAPGKERELVAAISYSTGRTYYADSVKGRFTISRDNAKNTVYLQMNSLKPEDTAVYYCAARYREQYDYWGQGTQVTVSS
polyreactivity (PSR sort gate): low polyreactivity

QVQLVESGGGLVQAGGSLRLSCAASGLIFNVNAMGWYRQAPRKERELVAAITGGGGSTYYADSVKGRFTISRDNAKNTVYLQMNSLKPEDTAVYYCAATTGLYTRYGDWGQVTQVTVSS
polyreactivity (PSR sort gate): high polyreactivity

QDQLVESGGGLVQAGGSLRLSCPASGHTFAKYAMGWYRQAPGKERELVAAISSGGDTYYADSVKGRFTISRDNAKNTVYLQMNSLIPEDTAVYYCAATSICGSWSFWSPGEYRHYDYWGQGTQVTVSS
polyreactivity (PSR sort gate): low polyreactivity

QVQLVESGGGLVQAGGSLRLSCAASGSIFVSYAMGWYRQAPGKERELVAAISRSGGRTYYADSVKGRFTISRDNAKNTVYLQMNSLKPEDTAVYYCAADYTKSSSPWPGYYWGQGTQVTVSS
polyreactivity (PSR sort gate): high polyreactivity

QVQLVESGGGLVQAGGSLRLSCPASGIIFNLYAMGWYRQAPGKERELVAAISWSGGSTDYADSVKGRFTISRDNAKNTVYLQMNSLKPEDTAVYYCATSFLYPYFDEDDYWGQGTQVTVSS
polyreactivity (PSR sort gate): high polyreactivity

QVQLVDSGGGLVQAGGSLRLSCAASGSIFPDNAMGWYRQAPGKEWEFVAAINWSTGTTYYADSVKGRFTISRDNAKNTVYLQMNSLKPEDTAVYYFNASDQAKYDYWGQGTQVTVSS
polyreactivity (PSR sort gate): low polyreactivity

QVQLVESGGGLVQAGGSLRLSCAASGSTFQSNAMGWYRQAPGTEREMVATITRGGGTSYADSVKGRFTISRDNAKNTVYVQMNSLQPEDTAVYYCNARRQRYYTQGRFYYWGQGTQVTVSS
polyreactivity (PSR sort gate): high polyreactivity

QVQLVESGGGLVQAGGSLRLSCAASGRIFSQYAMGWYRQAPGKERELVAAISRRTGSTYYADSVKVRFTISRDNAKNTVYLQMNSLKPDDTAVYFCNKARLGWSYRQDDYWGQGTQVTVSS
polyreactivity (PSR sort gate): high polyreactivity

QVQLVESGGGLVQAGGSLRLSCAASGSTFGVYGMGWYRQAPGKERELVASITSDGNTNYADSVKGRFTISRDNAKNTVYLQMNSLKPEDTAVYYCNTVGIQALYDYWGQGTQVTVSS
polyreactivity (PSR sort gate): low polyreactivity
